According to patent US6887705B1, “Tyrosine phosphorylated cleavage furrow-associated proteins (PSTPIPs)” (Genentech, Inc., priority 1997, dated 2005):

T1: PTP HSCF (Mus musculus, UniProt Q61152)
T1 construct: the PST (and C-terminal homolog) of PTP HSCF (amino acids 304-453); made in house; host or cells: E. coli DH5-alpha
T1 sequence (Q61152 304-453): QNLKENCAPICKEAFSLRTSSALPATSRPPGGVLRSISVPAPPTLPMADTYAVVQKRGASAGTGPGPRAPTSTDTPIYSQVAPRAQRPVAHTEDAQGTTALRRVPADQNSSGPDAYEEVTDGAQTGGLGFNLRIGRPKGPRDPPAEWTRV

B1: delta 75: PST PIP missing the N-terminal 75 amino acids (protein)
chain: SFDSLKQQTENVGSAHIQLALALREELRSLEEFRERQKEQRKKYEAIMDRVQKSKLSLYKKTMESKKAYDQKCRDADDAEQAFERVSANGHQKQVEKSQNKAKQCKESATEAERVYRQNIEQLERARTEWEQEHRTTCEAFQLQEFDRLTILRNALWVHCNQLSMQCVKDDELYEEVRLTLEGCDVEGDINGFIQSKSTGREPPAPVPYQNYYDREVTPLIGSPSIQPSCGVIKRFSGLLHGSPKTTPSAPAASTETLTPTPERNELVYASIEVQATQGNLNSSAQDYRALYDYTAQNSDELDISAGDILAVILEGEDGWWTVERNGQRGFVPGSYLEKLDYKDDDDK
B2: D197-A: dominant negative PTP HSCF, active site aspartate mutated to alanine (protein, UniProt Q99952 1-460, looked up, variant D197A)
Tyrosine-protein phosphatase …: MSRSLDSARSFLERLEARGGREGAVLAGEFSDIQACSAAWKADGVCSTVAGSRPENVRKNRYKDVLPYDQTRVILSLLQEEGHSDYINGNFIRGVDGSLAYIATQGPLPHTLLDFWRLVWEFGVKVILMACREIENGRKRCERYWAQEQEPLQTGLFCITLIKEKWLNEDIMLRTLKVTFQKESRSVYQLQYMSWPARGVPSSPDHMLAMVEEARRLQGSGPEPLCVHCSAGCGRTGVLCTVDYVRQLLLTQMIPPDFSLFDVVLKMRKQRPAAVQTEEQYRFLYHTVAQMFCSTLQNASPHYQNIKENCAPLYDDALFLRTPQALLAIPRPPGGVLRSISVPGSPGHAMADTYAVVQKRGAPAGAGSGTQTGTGTGTGARSAEEAPLYSKVTPRAQRPGAHAEDARGTLPGRVPADQSPAGSGAYEDVAGGAQTGGLGFNLRIGRPKGPRDPPAEWTRV
B3: wild type PTP HSCF: PEST-type protein tyrosine phosphatase PTP HSCF, wild type (protein)
chain: MSRHTDLVRSFLEQLEARDYREGAILAREFSDIKARSVAWKSEGVCSTKAGSRLGNTNKNRYKDVVAYDETRVILSLLQEEGHGDYINANFIRGIDGSQAYIATQGPLPHTLLDFWRLVWEFGVKVILMACQETENGRRKCERYWAREQEPLKAGPFCITLTKETTLNADITLRTLQVTFQKEFRSVHQLQYMSWPDHGVPSSSDHILTMVEEARCLQGLGPGPLCVHCSAGCGRTGVLCAVDYVRQLLLTQTIPPNFSLFQVVLEMRKQRPAAVQTEEQYRFLYHTVAQLFSRTLQDTSPHYQNLKENCAPICKEAFSLRTSSALPATSRPPGGVLRSISVPAPPTLPMADTYAVVQKRGASAGTGPGPRAPTSTDTPIYSQVAPRAQRPVAHTEDAQGTTALRRVPADQNSSGPDAYEEVTDGAQTGGLGFNLRIGRPKGPRDPPAEWTRV
modifications: left off: small tags and cut ends
B4: delta 50: PST PIP missing the N-terminal 50 amino acids (protein)
chain: ERYGKELVQIARKAGGQTEMNSLRTSFDSLKQQTENVGSAHIQLALALREELRSLEEFRERQKEQRKKYEAIMDRVQKSKLSLYKKTMESKKAYDQKCRDADDAEQAFERVSANGHQKQVEKSQNKAKQCKESATEAERVYRQNIEQLERARTEWEQEHRTTCEAFQLQEFDRLTILRNALWVHCNQLSMQCVKDDELYEEVRLTLEGCDVEGDINGFIQSKSTGREPPAPVPYQNYYDREVTPLIGSPSIQPSCGVIKRFSGLLHGSPKTTPSAPAASTETLTPTPERNELVYASIEVQATQGNLNSSAQDYRALYDYTAQNSDELDISAGDILAVILEGEDGWWTVERNGQRGFVPGSYLEKLDYKDDDDK
B5: delta 25: PST PIP missing the N-terminal 25 amino acids (protein)
chain: LQRLLDGRKMCKDVEELLRQRAQAEERYGKELVQIARKAGGQTEMNSLRTSFDSLKQQTENVGSAHIQLALALREELRSLEEFRERQKEQRKKYEAIMDRVQKSKLSLYKKTMESKKAYDQKCRDADDAEQAFERVSANGHQKQVEKSQNKAKQCKESATEAERVYRQNIEQLERARTEWEQEHRTTCEAFQLQEFDRLTILRNALWVHCNQLSMQCVKDDELYEEVRLTLEGCDVEGDINGFIQSKSTGREPPAPVPYQNYYDREVTPLIGSPSIQPSCGVIKRFSGLLHGSPKTTPSAPAASTETLTPTPERNELVYASIEVQATQGNLNSSAQDYRALYDYTAQNSDELDISAGDILAVILEGEDGWWTVERNGQRGFVPGSYLEKLDYKDDDDK

Assays:
[1] = tested on: CHO cells; experiment: Confocal microscopy of PST PIP forms expressed in CHO cells; assay type: cell-based, Chinese hamster; conditions: transfected CHO cells
Description: Confocal microscopy was performed as previously described (Spencer et al, (1997), supra). Briefly, CHO cells in chamber slides were transfected using Lipofectamine and the indicated plasmids. 48 hours later, cells were fixed in formaldehyde and stained with an anti-FLAG epitope specific antibody (Kodak) and Fluorescein-Phalloidin (Molecular Probes). Anti-Flag stained cells were washed and stained with Cy3-conjugated sheep anti-mouse IgG. Stained cells were observed using Molecular Dynamics Confocal Microscope™ (2001) and analyzed with ImageSpace™ software (Molecular Dynamics).

[2] = tested on: PSTPIP tyrosine phosphorylation; experiment: Tyrosine phosphorylation of PSTPIP in COS cells co-transfected with V-src; assay type: cell-based; conditions: COS cells expressing PSTPIP and V-src
Description: Baf3 cells were lysed in 1% Triton, 50 mM HEPES. 10% glycerol and 5 mM EDTA containing 1 μg/ml aprotinin, PMSF, leupeptin and pepstatin were 1 mM Sodium Vanadate and 10 mM Iodoacetic acid. Cells were treated with 0.1 mM Pervanadate for 4 hours before lysis. Immunoprecipitations were performed in the vanadate-containing lysis buffer using 1 μg/ml anti-PSTPIP polyclonal antibody and 400 μg of lysate protein at 4° C. overnight. Western blots were performed using 1 μg/ml affinity purified anti-PSTPIP or 1:5000 dilution of commercial 4G10 anti-phosphotyrosine monoclonal (Upstate Biotech). Signal was detected by HRPO-ECL reagents (Pierce). The C221-S mutant was as previously described (Cheng et al., (1996) supra). The PTP HSCF D197-A mutant was generated using PCR. Mutagenesis primer D197A.F ([…]) (SEQ ID NO:24), corresponding to nucleotide 591, and primer D197A.R ([…]) (SEQ ID NO:25) which corresponds to the stop codon, were used in PCR to generate a fragment that could be cut with Mscl and XbaI. pRK.HA.38 WT, a plasmid which encoded the wild type enzyme under the control of the cytomegalovirus promoter (Cheng et al., (1996) supra), was digested with Clal and Mscl and the resulting 600 bp fragment was ligated with the Mscl-Xbal PCR fragment into the Clal and Xbal sites of the pRK.tkneo. A plasmid encoding the V-src oncogene under the control of the SV40 early promoter was the kind gift of Dr. Art Levinson (CEO-Genetech, Inc.). NIH 3T3 cells and the COS-7 cells were cultured in high glucose DMEM supplemented with 10% FBS, 2 mM L-Glutamine, 10 mM HEPES pH 7.2 and pen-strep.
COS-7 cells were transfected by electroporation. Briefly, 1.5×10^6 COS-7 cells were mixed with 24 μg total DNA in PBS and electroporated at 960 μF, […] (Bio-Rad™ Gene Pulsar™). Following electroporation, cells were seeded in 10 cm dishes and incubated for 3 days. 10-cm dishes of transfected COS cells were washed twice with ice-cold PBS, and lysed in 1 ml of M-RIPA (50 mM Tris 7.4, 1% NP40, 0.25% DOC, 150 mM NaCl, 1 mM sodium ortho-vanadate, 1 mM NaF plus Complete™ Protease Inhibitors (Boehringer Mannheim)). Lysates were incubated for 15 minutes with 100 μl UltraLink Immobilized Protein A/G™ (Pierce) at 4° C., followed by centrifugation for 5 minutes. Supernatants were collected and stored at −70° C. or directly immunoprecipitated. 5 μg of M2 or 12CA5 was added to 500 μl of lysate and incubated overnight at 4° C. Ultralink Protein A/G™ was added and incubation continued for 2 hours at 4° C. The immune complexes were washed 3 times with M-RIPA. The proteins were subjected to SDS-PAGE and transferred to nitrocellulose in 1X Transfer Buffer™ (Novex). Immunoblots were blocked overnight at 4° C. in 3% milk/PBS. To detect Flag-tagged PIP, blots were incubated with 10 μg/ml Bio-M2 (Biotinylated anti-FLAG monoclonal Ab, KODAK) followed by incubation in 10 μg/ml streptavidin-HRP (UBI). To detect HA-tagged PTPhscf, blots were incubated in anti-(HA)-peroxidase (Boehringer Mannheim) as per manufacturer's instructions. To detect phosphotyrosine, blots were incubated in HRP-conjugated 4G10 (anti-phosphotyrosine monoclonal, UBI) as per manufacture's instructions.
COS cells were transfected with a constant amount of either the wild type of W232A mutant of PST PIP and cotransfected with increasing amounts of a plasmid encoding the v-Src tyrosine kinase (Spencer et al, (1997), supra). Plasmid concentrations were equalized with an empty vector containing the CMV promoter. After 48 hours, lysates were prepare and immunoprecipitated with anti-FLAG monoclonal antibody. Precipitates were run on SDS polyacrylamide gels, blotted, and probed with either anti-FLAG antibody or anti-phosphotyrosine antibody as previously described (Spencer et al, (1997), supra). Bound antibodies were visualized using enhanced chemiluminescent reagents.

[3] = target: T1, PTP HSCF; experiment: In vitro GST pull-down binding of PST PIP forms to PTP HSCF; conditions: in vitro
Description: The binding was carried out according to the method of Wong and Johnson (Wong et al., J. Biol. Chem. 271(35):20981-20984 (1996)). Briefly, 1 μg of plasmid with either the PSTPIP protein or PTP HSCF under the control of the Sp6 promoter was in vitro transcribed/translated using the Promega™ TnT Rabbit Reticulocyte™ system. Samples were diluted in 50 mM HEPES, pH 7.2, 1% triton X 100, 10% glycerol, 100 mM NaCl, 5 mM EDTA and 2 μg/ml each of leupeptin, pepstatin, aprotinin, and PMSF. […] This was reacted for 1 hour at 4° C. and then the resin washed 6 times in HEPES/Triton binding buffer before SDS gel electrophoresis. The peptides were synthesized on an automated Milligen 9050 Peptide Synthesizer using standard solid phase chemistry with FMOC protected amino acids on a p-alkoxybenzyl alcohol resin. Dried peptides were re-suspended in the HEPES/Triton Binding buffer at a concentration of 10 mg/ml. Peptide inhibition was performed by adding the peptide first to the in vitro translation product and then the GST-fusion followed by the GSH-Sepharose. The binding/washing steps were as previously described. The peptides synthesized and the PTPs they were derived from were: • PXXP-HSCF: 432[…]451 (PTP HSCF) (SEQ ID NO:20), • PXXP-PEP: 782GFGNRFSKPKGPRNPPSAW800 (PTP PEP) (SEQ ID NO:21), • PXXP-PEST: 761[…]780 (PTP PEST) SEQ ID NO:22), • PXXP-CONTROL: 334[…]353 (PTP HSCF) (SEQ ID NO:23).
In vitro binding analyses between various PTP HSCF and PST PIP constructs were performed as previously described (Spencer et al, (1997), supra). Briefly, plasmids were transcribed and translated in vitro using the TnT Rabbit Reticulocyte Lysate System (Promega). Samples were diluted in 50 mM HEPES, pH 7.2, 1% triton X-100, 10% glycerol, 100 mM NaCl, and 2 μg/ml each of leupeptin, pepstatin, aprotinin and PMSF (lysis buffer). Samples were than reacted with GST fusion proteins at various concentrations, and the bound proteins were centrifuged using glutathione-sepharose beads and analyzed on SDS polyacrylamide gels. C-terminally-derived peptide inhibition studies were performed by incubating the GST fusion protein binding reactions in the presence of 10 μg/ml of the indicated peptides. Peptides were produced by FMOC-protected amino acids as previously described (Spencer et al, (1997), supra). In vivo interactions between various forms of PTP HSCF and PST PIP were also performed as previously described (Spencer et al, (1997), supra). Briefly, COS cells were transfected with various constructs, and after 48 hours, lysates were prepared and immunoprecipitated with antibodies to either the FLAG epitope contained at the C-terminus of PST PIP or an HA epitope contained at the N-terminus of PTP HSCF. The resultant blots were probed with anti-FLAG to detect PST PIP, anti-HA to detect PTP HSCF or anti-phosphotyrosine to detect levels of this modified amino acid in each protein.

Molecule	cellular localization of PST PIP forms (assay for correct folding) [1]	level of tyrosine phosphate on PSTPIP on cotransfection of PTP HSCF forms [2]	binding of in vitro translated PST PIP forms to GST fusion of C-terminal 149 amino acids of PTP HSCF [3]
B1	formed large aggregates within the cytoplasm		
B2		slightly more efficient dominant negative protein	
B3		decreased level of tyrosine phosphate	
B4	formed large aggregates within the cytoplasm		
B5	predominantly co-localized with the cortical actin cytoskeleton		capable of interacting
